Literature values, collected in patent US10543287.

Legend:
[1] = system: rag2 ZFN pair (FokI) (synthetic construct); assay: cell_activity; conditions: CITED ref 58 somatic mutation rate in zebrafish embryos, mutant lines obtained here (Table 1), half-sites only highlighted in figure
[2] = system: jak3 ZFN pair (FokI) (synthetic construct); assay: cell_activity; conditions: CITED ref 58 somatic mutation rate in zebrafish embryos, mutant lines obtained here (Table 1), half-sites only highlighted in figure

Row | Sequence | activity [1] | activity [2]
1 | CCATGATCTTCTGCTCCAGGGGTGAAGGTGGACACTG (double strand) [rag2 ZFN target] | 7.7% | 
2 | TATTTCTGCGCAGAAGTGGCCCCACCAAGCCTGCTGGAGGACATACAGAATTA (double strand) [jak3 ZFN target] |  | 1.4%
